Test results: US20200190192A1 (SUTRO BIOPHARMA, published 2020)
Like-named read-outs stand apart in the source and are kept apart here.

Experiments:
[1] = molecular target: T1, human Tim-3 (Biacore analyte; TIM-3-Fc or TIM-3-HIS, not said which) (human, UniProt Q8TDQ0 22-202); experiment: SPR Biacore, human Tim-3 (Fc or HIS not said)
T1 construct: also called TIM-3 antigen; not shown: Fc or HIS tag

[2] = molecular target: T2, recombinant human Tim-3-Fc (R&D Systems, 2365-TM) (human, UniProt Q8TDQ0 22-202, biotinylated in the Galectin-9 competition ELISA (sites not given)); experiment: competition ELISA, biotin-Tim-3-Fc vs coated Galectin-9
T2 construct: Bought protein; also called huTim-3-Fc; biotinylated Tim-3-Fc; not shown: Fc of the bought fusion protein

[3] = molecular target: T3, cynomolgus Tim-3 expressed on CHO cells (cynomolgus monkey); experiment: flow cytometry, CHO-cyno Tim-3 cells
T3 construct: also called cTim-3; Cyno Tim-3 (CHO)
T3 chain: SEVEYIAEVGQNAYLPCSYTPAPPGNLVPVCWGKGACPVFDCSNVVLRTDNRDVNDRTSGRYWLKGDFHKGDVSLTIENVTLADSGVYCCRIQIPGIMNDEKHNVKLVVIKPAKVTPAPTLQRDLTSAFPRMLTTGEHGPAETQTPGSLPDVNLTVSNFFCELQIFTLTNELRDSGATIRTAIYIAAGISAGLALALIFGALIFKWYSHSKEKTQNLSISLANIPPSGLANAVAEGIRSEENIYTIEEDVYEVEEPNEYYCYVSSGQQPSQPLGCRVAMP

[4] = molecular target: T4, human Tim-3 expressed on the cell surface (human, UniProt Q8TDQ0 22-301); experiment: flow cytometry, CHO-human Tim-3 cells
T4 construct: also called hTim-3; Human Tim-3 (CHO)

[5] = molecular target: T4, human Tim-3 expressed on the cell …; experiment: flow cytometry, CHO-human Tim-3 cells; set-up: Bmax: unit not given here
[6] = molecular target: T5, biotinylated recombinant human PD-1 (AcroBiosystems) (human, UniProt Q15116 25-167, limits assumed, biotinylated (sites not given)); experiment: competition, flow cytometry: biotin-PD-1 binding to CHO-human PD-L1 cells
T5 construct: Bought protein; also called biotinylated PD-1

[7] = molecular target: T6, human PD-1 expressed on CHO cells (human, UniProt Q15116 25-288); experiment: flow cytometry, CHO-human PD-1 cells; set-up: Bmax: unit not given here
T6 construct: also called hPD-1; CHO-hPD-1

[8] = molecular target: T1, human Tim-3 (Biacore analyte; TIM-3-Fc …); experiment: SPR, Tim-3 analyte

| Binder | Kd [1] [nM] | koff [1] [s⁻¹] | kon [1] [M⁻¹ s⁻¹] | IC50 [2] [nM] | Kd [3] [nM] | Kd [4] [nM] | Bmax [5] | Kd [5] [nM] | IC50 [6] [nM] | Bmax [7] | Kd [7] [nM] | Kd [8] [nM] |
| --- | --- | --- | --- | --- | --- | --- | --- | --- | --- | --- | --- | --- |
| SRP1649-F06 (antibody, V domains shown, IgG with trastuzumab LC; HIS- and FLAG-tagged) VH: EVQLVESGGGLVQPGGSLRLSCAASGFNIGNYAIHWVRQAPGKGLEWVADITPGQGYTEYADSVKDRFTISADTSKNTAYLQMNSLRAEDTAVYYCARGYVYRMWDSYDYWGQGTLVTVSS VL: not shown | 17.3 | 0.00393 | 227000 | 0.63 | 5.6 | 0.2 |  |  |  |  |  |  |
| 1353-G10 scFvFc-zwB × 1649-A01 Hc zwA R31D/TrstmbLC S56D (bispecific antibody, Tim-3 heavy chain with zwA CH3 mutations) scFv: not shown VH: EVQLVESGGGLVQPGGSLRLSCAASGFNISDYYIHWVRQAPGKGLEWVAGITPVRGYTEYADSVKDRFTISADTSKNTAYLQMNSLRAEDTAVYYCARGYVYRMWDSYDYWGQGTLVTVSS VL: not shown |  |  |  |  |  |  | 11300 | 3.5 | 117 | 14000 | 2.7 | 8.6 |
| 1353-G10 scFvFc-zwB × 1649-A01 Hc zwA R31D/Y56D/TrstmbLC S56D (bispecific antibody) scFv: not shown VH: EVQLVESGGGLVQPGGSLRLSCAASGFNISDYYIHWVRQAPGKGLEWVAGITPVRGDTEYADSVKDRFTISADTSKNTAYLQMNSLRAEDTAVYYCARGYVYRMWDSYDYWGQGTLVTVSS VL: not shown |  |  |  |  |  |  | 11400 | 3.3 | 148 | 12600 | 1.6 | 8.8 |
| 1353-G10 scFvFc-zwB × 1649-A01 Hc zwA S30D/R31D/TrstmbLC S56D (bispecific antibody, Tim-3 heavy chain with zwA CH3 mutations) scFv: not shown VH: EVQLVESGGGLVQPGGSLRLSCAASGFNIDDYYIHWVRQAPGKGLEWVAGITPVRGYTEYADSVKDRFTISADTSKNTAYLQMNSLRAEDTAVYYCARGYVYRMWDSYDYWGQGTLVTVSS VL: not shown |  |  |  |  |  |  | 10500 | 3.7 | 138 | 9860 | 1.1 | 8.7 |
| 1353-G10 scFvFc-zwB × 1649-A01 Hc zwA S30D/R31D/Y56D/TrstmbLC S56D (bispecific antibody, Tim-3 heavy chain with zwA CH3 mutations) scFv: not shown VH: EVQLVESGGGLVQPGGSLRLSCAASGFNIDDYYIHWVRQAPGKGLEWVAGITPVRGDTEYADSVKDRFTISADTSKNTAYLQMNSLRAEDTAVYYCARGYVYRMWDSYDYWGQGTLVTVSS VL: not shown |  |  |  |  |  |  | 10900 | 4.3 | 147 | 13000 | 2.1 | 11 |
| 1353-G10 scFvFc-zwB × 1649-A01 Hc zwA S30D/TrstmbLC S56D (bispecific antibody, Tim-3 heavy chain with zwA CH3 mutations) scFv: not shown VH: EVQLVESGGGLVQPGGSLRLSCAASGFNIDRYYIHWVRQAPGKGLEWVAGITPVRGYTEYADSVKDRFTISADTSKNTAYLQMNSLRAEDTAVYYCARGYVYRMWDSYDYWGQGTLVTVSS VL: not shown |  |  |  |  |  |  | 11700 | 3.2 | 128 | 12500 | 1.3 | 7.1 |
| 1353-G10 scFvFc-zwB × 1649-A01 Hc zwA S30D/Y56D/TrstmbLC S56D (bispecific antibody, Tim-3 heavy chain with zwA CH3 mutations; also called 1649-A01 Hc zwA S30D/Y56D/TrsimbLC S56D) scFv: not shown VH: EVQLVESGGGLVQPGGSLRLSCAASGFNIDRYYIHWVRQAPGKGLEWVAGITPVRGDTEYADSVKDRFTISADTSKNTAYLQMNSLRAEDTAVYYCARGYVYRMWDSYDYWGQGTLVTVSS VL: not shown |  |  |  |  |  |  | 10000 | 3.6 | 108 | 9650 | 1.2 | 9.7 |
